Experiment [1] has as its target T1, human pro-MMP9 (Homo sapiens, UniProt P14780). The experiment is described as follows: Direct binding ELISA. The note with it: biotinylated antibody, antigen coated at 2.5 μg/ml. On the procedure:
(§1) MMP9 antigens were coated at 2.5 μg/ml. Controls were streptavidin-HRP alone (closed triangles), or human IgG4 isotype control plus biotinylated anti-human-IgG second step Fab antibody (closed squares).
(§2) Direct binding capacities of anti-MMP9 antibodies towards human pro-MMP9 and MMP3-activated human MMP9, respectively, were assessed using a standard ELISA protocol. Briefly, 96-well plates were coated with (2.5 μg/ml) of either form of MMP9 for 16 h at room temperature.
In general terms: In an ELISA, binding on a coated surface is turned into a signal by an enzyme label.

Experiment [2] concerns the target T2, MMP3-activated MMP9 (Homo sapiens, UniProt P14780). The experiment is described as follows: Direct binding ELISA. As to conditions: biotinylated antibody, antigen coated at 2.5 μg/ml. On the procedure: as §1, §2
The target in experiment [3] is T1, human pro-MMP9. The experiment is described as follows: Surface Plasmon Resonance (BIAcore) binding. The note with it: for SPR binding to pro-MMP9 (in words): sensograms, 4.7 to 150 nM. On the procedure:
(§3) Sensorgrams of kinetics of binding are reported. Resonance unit (RU). All y axis-response (RU); all x axis-time (s).
(§4) Binding of anti-MMP9 antibodies towards recombinant human MMP9 antigen was characterized using standard Surface Plasmon Resonance (SPR) assay. In a first step, anti-MMP9 antibodies were captured by anti-human Fc antibody immobilized onto a BIAcore sensor chip. In a second step, pro-MMP9 or MMP3-activated MMP9 were titrated from 4.7 to 150 nM in 2-fold dilutions.
(In general: Surface plasmon resonance follows binding to a sensor surface in real time, without labels.)

The target of experiment [4] is T2, MMP3-activated MMP9. Nature of the experiment: Surface Plasmon Resonance (BIAcore) binding. The note with it: for SPR binding to MMP3-activated MMP9 (in words): sensograms, 4.7 to 150 nM. The procedure:
as §3, §4

Experiment [5] has as its target Human MMP9 (i.e. activated MMP9) (Homo sapiens, UniProt P14780). The experiment is described as follows: MMP9 assay: DQ-gelatin digestion by pre-activated (caspase-cleaved) MMP9. Type of experiment: biochemical. As to conditions: MMP9 assay with highly purified activated MMP9. On the procedure: The functional neutralization of MMP9 catalytic activity towards the fluorogenic polymer substrate DQ-gelatin by some antibodies according to the invention was evaluated. The signature activity of MMP9 (and MMP2) is gelatin degradation. Gelatin is essentially an irreversibly denatured form derived from various collagens, several of which are considered key physiological substrates for MMP9. Unlike small peptidic substrates, the binding and recognition of gelatin (similar to that of collagen) by MMP9 is complex and known to be mediated via regions of the molecule other than the active site, including the fibronectin and PEX domains. In order to retain these physiologically relevant ‘exosite’ interactions and to facilitate the isolation of potential ‘non-classical’ allosteric neutralizer classes, a fluorogenically quenched soluble gelatin polymer (DQ-gelatin) was chosen as the key substrate for plate-based screening and ranking purposes. Substrate hydrolysis was mediated by truncated fragment of MMP9 (ie. pro-domain removed). The assay was performed in two modes. The first mode, named “MMP9 assay”, utilized pre-activated MMP9 (from engineered MMP9 containing a LETD caspase 8 recognition motif at the native cleavage junction) in which the pro-domain was first removed via directed caspase 8 cleavage. […]

For experiment [6], the system named is heterotopic intestinal grafts in C57BL/6 mice. Nature of the experiment: Heterotopic transplant mouse model of intestinal fibrosis. Type of experiment: in vivo. On the procedure:
Donor (green fluorescent protein-marked C57BL/6-Tg UBC-GFP mice) small bowel resections were transplanted subcutaneously into the neck of recipient C57BL/6 mice. Mice were injected intraperitoneally at day 5, 8 and 10 with 30 mg/kg of an anti-MMP9 antibody of the invention (F20-VH/B08-VLc, variant F20-VH-GL1-V4-V9/B08-VL-GL6c), or isotype control antibody (IgG4), 5 mice per group. Small bowel grafts were explanted 14 days after transplantation. After explant, each graft was divided into three equal segments. The central segment was fixed in 4% formalin, and prepared for histopathological assessment. The two outer segments were snap frozen in liquid nitrogen and stored at −70° C. until RNA or protein extraction.
Histologic cross sections were stained with Sirius red to highlight collagen (red stain). Collagen layer thickness was determined by an independent investigator blinded to the type of experiment. Microscopic assessment was done using an AxioCam MRc5 on a Zeiss Axiophot microscope. The thickness of the collagen layer was measured with the AxioVision Release 4.7.2 software (Zeiss). Thickness was calculated from eight places in representative areas (in eight samples investigated for each time point) at 100-fold magnification. Statistical analyses were performed using PRISM 6 software. Unpaired t test was used for comparison among groups.

Experiment [7] concerns the target T2, MMP3-activated MMP9. Nature of the experiment: Competitive binding ELISA. As to conditions: pre-incubation with 50 μg/mL purified antibody. From the text: For panels A, B, C, results are expressed as mean±SD of corrected absorbance (A450-A620) for each condition performed in duplicate.
The test system of experiment [8] is MGC803 human gastric cancer cells. The experiment is described as follows: Cancer cell invasion through Matrigel-coated transwell. Type of experiment: cell-based. As to conditions: 10 μg/ml antibody, PMA 100 ng/ml, 16 h. The procedure: MGC803 human gastric cancer cells were incubated with Phorbol 12-Myristate 13-Acetate (PMA) and with a broad chemical inhibitor of MMPs (GM-6001), anti-MMP9 antibody (F20-VH/B08-VLc), isotype control or medium alone. Invading cells were quantified after 16 hours using Calcein-AM. Each condition was performed in duplicates and means and SD of fluorescence units are reported.
Cancer cell line invasion was assessed using Matrigel-coated transwells. Insert membranes of transwells (provided in kit from Cultrex—3455-024) were coated with basement membrane extract (BME ×0.5; provided in Cultrex's kit) and incubated for 24 h at 37° C. Meanwhile, MGC803 (human gastric cancer cell line—Easy-Bio, China) were starved in RPMI culture medium (Gibco—52400025) deprived of serum (starving medium). […] One hundred μl of treated cells were seeded into Matrigel-coated transwells and 500 μl of RPMI medium containing 10% FCS were added in the lower side of the transwell. Plates were incubated for 16 h at 37° C. Invading cells were quantified by incubation of the bottom side of transwell membrane with Calcein-AM, whose cleavage into fluorescent Calcein is proportional to cell counts. Emitted fluorescent signal (Excitation at 485 nm, emission at 520 nm) reflects efficiency of cell invasion through Matrigel.

The test system of experiment [9] is DSS-induced colitis in BALB/c mice. The experiment is described as follows: DSS-induced colitis mouse model. The experiment is classed as in vivo. As to conditions: Day 14, vs isotype control. On the procedure: The therapeutic efficacy of an anti-MMP9 antibody according to the invention was assessed in a DSS-induced colitis model in BALB/c mice. Colitis was induced with 4% (w/v) DSS in drinking water for 5 days. Doses of 30 mg/kg F20-VH/B08-VLc (variant F20-VH-GL1-V4-V9/B08-VL-GL6c) or isotype control (IgG4) antibodies were intraperitoneally injected to groups of 10 mice at day 6, 9 and 12, and animals were sacrificed at day 14.
The course of the disease was evaluated in blind fashion by video endoscopy of the lower colon at days 6, 10 and 14. Colitis was scored visually on a scale of 0-14 based on the degree of ulceration, vascularisation, and granularity present in tissue and colon length involved as follows: ulceration (0, 1, 2 or 3), masking of vascularisation (0, 1, 2 or 3), granularity (0, 1, 2 or 3), erythema (0, 1, 2 or 3), length involved (0, 1: localized, 2: diffuse). Each mouse was assigned a single endoscopy score corresponding to the damage observed throughout the entire length of the colon examined.
At study termination (Day 14), distal colon was excised from each mouse, formalin-fixed and embedded in paraffin and sectioned for histology. All sections were stained with haematoxylin and eosin and examined in a fashion blind as to treatment groups. Tissues were scored for epithelium damage and infiltration of inflammatory cells according to the scoring scale of […] for each parameter. The histology score represents the sum of the epithelium damage and infiltration of inflammatory cell scores, and thus ranges from 0 to 8.

One may read the Kd as the concentration at which binding is half-saturated.

Numbering of substitutions follows the chain as printed.

T2 sequence (P14780 107-707): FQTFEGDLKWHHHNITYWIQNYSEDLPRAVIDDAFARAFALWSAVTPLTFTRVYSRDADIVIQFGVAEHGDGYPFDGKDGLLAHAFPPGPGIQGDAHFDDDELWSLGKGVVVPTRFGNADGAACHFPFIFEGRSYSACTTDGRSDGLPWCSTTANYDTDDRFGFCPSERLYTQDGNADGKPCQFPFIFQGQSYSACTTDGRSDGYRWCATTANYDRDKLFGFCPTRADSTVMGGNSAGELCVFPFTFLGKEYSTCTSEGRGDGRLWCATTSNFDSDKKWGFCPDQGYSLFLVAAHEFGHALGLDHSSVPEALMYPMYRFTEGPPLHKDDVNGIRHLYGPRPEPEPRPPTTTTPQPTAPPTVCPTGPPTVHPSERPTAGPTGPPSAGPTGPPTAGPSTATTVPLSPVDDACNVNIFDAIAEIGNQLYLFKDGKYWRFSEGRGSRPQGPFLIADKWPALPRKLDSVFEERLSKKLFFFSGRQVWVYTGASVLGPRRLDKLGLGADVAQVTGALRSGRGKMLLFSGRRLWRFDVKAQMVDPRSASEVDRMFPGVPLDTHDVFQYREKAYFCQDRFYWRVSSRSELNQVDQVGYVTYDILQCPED
T1 sequence (P14780 20-707): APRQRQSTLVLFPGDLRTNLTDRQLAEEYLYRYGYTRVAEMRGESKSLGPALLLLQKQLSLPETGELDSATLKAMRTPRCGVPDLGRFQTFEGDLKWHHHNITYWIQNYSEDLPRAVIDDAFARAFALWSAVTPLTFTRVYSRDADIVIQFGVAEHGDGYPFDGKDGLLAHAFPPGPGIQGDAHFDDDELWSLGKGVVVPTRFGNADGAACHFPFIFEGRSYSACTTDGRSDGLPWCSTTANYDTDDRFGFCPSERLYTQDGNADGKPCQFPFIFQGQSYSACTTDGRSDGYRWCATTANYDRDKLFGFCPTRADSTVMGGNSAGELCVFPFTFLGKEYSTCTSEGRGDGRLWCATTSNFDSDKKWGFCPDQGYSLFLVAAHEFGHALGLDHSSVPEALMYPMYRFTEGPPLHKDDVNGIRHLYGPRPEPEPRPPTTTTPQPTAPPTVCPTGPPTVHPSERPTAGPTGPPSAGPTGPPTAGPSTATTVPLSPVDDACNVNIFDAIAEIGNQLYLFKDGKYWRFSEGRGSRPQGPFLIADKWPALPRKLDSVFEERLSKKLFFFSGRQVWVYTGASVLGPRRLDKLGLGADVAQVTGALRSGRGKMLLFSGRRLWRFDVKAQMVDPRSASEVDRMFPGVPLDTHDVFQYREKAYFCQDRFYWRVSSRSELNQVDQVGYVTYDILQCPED
Chain of Human MMP9 (i.e. activated MMP9) (P14780 107-707 limits assumed): as the sequence (P14780 107-707) above

Regarding “comparative antibody 1: antibody known as AB0041, heavy chain SEQ ID NO: 44, light chain SEQ ID NO: 45; mouse monoclonal, WO 2013/130078 [reference compound]”, the “ELISA direct binding to pro-MMP9 (in words)” value in the experiment with human pro-MMP9 [1] is “binds well”. Also, the “ELISA direct binding to MMP3-activated MMP9 (in words)” value in the experiment with MMP3-activated MMP9 [2] is on record as “strongly bind”. In the experiment with human pro-MMP9 [3], the “SPR binding to pro-MMP9 (in words)” value was “binds well”. Besides, the “SPR binding to MMP3-activated MMP9 (in words)” value with MMP3-activated MMP9 [4] was “bind well”. Besides, the “decrease of DQ-gelatin digestion (in words)” value in experiment [5] is “inactive”.

B1: F20-VH-GL1-V4-V9/B08-VL-GL6c: VH SEQ ID NO: 19; VL SEQ ID NO: 70; reformatted as human IgG4; the F20-VH/B08-VLc variant of Examples 5-12 (antibody, V domains shown)
VH: EVQLVESGGGLVQPGRSLRLSCAASGFTFNDYPMHWVRQAPGKGLEWVSGISSRSGSVGYAESVKGRFTISRDNAKNSLYLQMNSLRAEDTALYYCARDKIYYGSGSYDFYYYYGMDVWGQGTTVTVSS
VL: QSALTQPASVSGSPGQSITISCTGTSNDVGAYNRVSWYQQHPGKAPKLMIYGVSNRPSGVSNRFSGSKSGNTASLTISGLQAEDEADFYCTSYSSSTTSYVVFGGGTKVTVL
modifications: human IgG4 format; heavy chain F20-VH-GL1-V4-V9; light chain B08-VL-GL6c
B1: in the experiment with human pro-MMP9 [1], the “ELISA direct binding to pro-MMP9 (in words)” value is “only shows significant binding to pro-MMP9 at the highest concentration tested”. In the experiment with MMP3-activated MMP9 [2], the “ELISA direct binding to MMP3-activated MMP9 (in words)” value is “strongly bind”. Further, the “occlusion of the intestinal lumen of the graft” value in [6] (14 days after transplantation) is “partial occlusion of the intestinal lumen”. Further, the “binding observed to pro-MMP9” value with human pro-MMP9 [3] (SPR, at a 150 nM antibody concentration) is less than 1%. Besides, in the experiment with human pro-MMP9 [3], the “SPR binding to pro-MMP9 (in words)” value is given as “minimal signal”. Further, in the experiment with MMP3-activated MMP9 [4], the “SPR binding to MMP3-activated MMP9 (in words)” value is “bind well”. For the same molecule, the “competition with biotinylated comparative antibody 1 for binding to MMP9 (in words)” value with MMP3-activated MMP9 [7] is “does not prevent binding of comparative antibody 1”. Further, the “inhibition of migration of MGC803 cancer cells through Matrigel” value in [8] is on record as “efficiently inhibits migration”.

B2: F20-VH/B08-VLc: VH SEQ ID NO: 11; VL SEQ ID NO: 69; HO candidate selected for lead optimization; name also used loosely for its tested variant (antibody, V domains shown)
VH: B1 VH with R54N, E62D, A88D, L93V
VL: B1 VL with A8R, I18V, M49L, N62T, Q81L, E83A
modifications: heavy chain F20-VH; light chain B08-VLc
Consider B2, for which the “loss of epithelial structure in heterotopic intestinal grafts” value in experiment [6] (30 mg/kg i.p. day 5, 8, 10, day 14, vs isotype control) is recorded as “significantly protects against loss of epithelial structure”. Also, the “collagen layer thickness in heterotopic intestinal grafts” value in [6] (30 mg/kg i.p. day 5, 8, 10, day 14, vs isotype control, p<0.0001) was “reduces collagen layer thickness”. Moreover, the Kd with human pro-MMP9 [3] (SPR, antibody captured by anti-human Fc, calculated from the curves, read-out: KD (nM), antigen Pro-MMP9) was more than 15000 nM. The Kd with MMP3-activated MMP9 [4] (SPR, MMP3-activated MMP9, calculated from the curves, read-out: KD (nM), antigen MMP9) is 11.7 nM. The mean endoscopy score result in experiment [9] (30 mg/kg i.p. day 6, 9, 12, p=0.005) is “significant improvement”. In [9] (30 mg/kg i.p.), the “mean colitis severity score (histology)” value is on record as “decrease”, the “mean score for epithelial damage” value is recorded as “decreased” and the “mean score for infiltration of inflammatory cells” value is “decreased”.

Source of the values: US10364296B2, “Antibodies specific for MMP9” (CALYPSO BIOTECH SA, priority 2014, dated 2019).
